This is an account of results in patent US20250282879A1 (CILAG GMBH INTERNATIONAL, published 2025).

The target in experiment [1] is T1, human IL-4R on cells (HEK-Blue IL-4/IL-13 cells, human PBMC, human whole blood) (human, UniProt P24394 26-825). Briefly: cell-based or functional assay.
The target in experiment [2] is T2, human IL-4R (form not stated) (human, UniProt P24394 26-232, limits assumed).
T2 construct: whole entry named; also called hIL-4R
Put plainly: competition ELISA, hIL-4/IL-4R (plate of PRO1898).

The target of experiment [3] is T2, human IL-4R (form not stated). Put plainly: competition ELISA, hIL-4/IL-4R (plate of PRO1899).
In experiment [4] the target is T1, human IL-4R on cells (HEK-Blue …). Put plainly: cell-based or functional assay. The source holds these as a separate data set.
Experiment [5] shares this target. Briefly: cell-based or functional assay. This is another data set of the same source.
The target is the same in experiment [6]. Put plainly: cell-based or functional assay. The source holds these as a separate data set.
The target in experiment [7] is T3, recombinant human IL-31 protein (Peprotech) (human, UniProt Q6EBC2 24-164).
T3 sequence (looked up): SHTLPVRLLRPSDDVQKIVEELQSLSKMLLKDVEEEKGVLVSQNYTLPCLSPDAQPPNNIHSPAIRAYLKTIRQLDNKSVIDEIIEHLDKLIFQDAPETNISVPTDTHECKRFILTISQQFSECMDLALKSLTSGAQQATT
Briefly: cell-based or functional assay.

Experiment [8] deals with T1, human IL-4R on cells (HEK-Blue …). Briefly: cell-based or functional assay. The source holds these as a separate data set.
For experiment [9], the target named is T3, recombinant human IL-31 protein …. Briefly: cell-based or functional assay. The source holds these as a separate data set.
The target of experiment [10] is T4, recombinant cynomolgus monkey IL-31 (ECD with His Tag, Sino Biological) (cynomolgus monkey). Briefly: cell-based or functional assay.
Experiment [11] addresses T5, human IL-4R on transfected HEK293T cells (human, UniProt P24394 26-825).
T5 construct: whole, on cells; also called human IL-4R-expressing HEK293T cells; not shown: V5 Tag fused to the N-terminus of the expression construct
Put plainly: flow cytometry, transfected HEK293T cells. An excerpt:
(§1) To test binding of the Morrison-H and Morrison-L antibodies PRO2198, PRO2199, PRO2206 and PRO2207 to human or cynomolgus IL-4R-expressing HEK293T cells, HEK293T cells were transfected with human and cynomolgus IL-4R plasmids and mock plasmid using Lipofectamine3000. Binding of an antibody targeting V5 Tag, which is fused to the N-terminus of human and cynomolgus IL-4R expression constructs, would confirm successful expression of both targets and was thus used as a positive control for plasma membranous binding. The Morrison-H molecule PRO2077 was used as negative control for cynomolgus IL-4R binding since this molecule had not shown any cross-reactivity to cynomolgus IL-4R (see section 5.3.).
(§2) 50,000 transfected HEK293T cells per well were seeded in a 96-well plate. 5-fold serial dilutions of the Morrison-H and Morrison-L antibodies PRO2198, PRO2199, PRO2206 and PRO2207 and of the control molecule PRO2077, which is not cross-reactive to cynomolgus IL-4R, were added at concentrations ranging from 5,000 to 0.32 ng/ml to the plates and incubated for 60 min at 4° C. on a shaker. Supernatants were removed and detection reagent was added for flow cytometry analysis. The geometric mean of the APC fluorescence intensity of single cells was calculated.

Experiment [12] addresses T6, cynomolgus IL-4R on transfected HEK293T cells (cynomolgus monkey, UniProt A0A2K5V580 33-832).
T6 construct: whole, on cells; also called cynomolgus IL-4R-expressing HEK293T cells; not shown: V5 Tag fused to the N-terminus of the expression construct
Briefly: flow cytometry, transfected HEK293T cells.
Source text: as §1, §2

Experiment [13] addresses T4, recombinant cynomolgus monkey IL-31 …. Put plainly: SPR, Morrison captured on immobilized human IL-4R-Fc, IL-31 analyte.
Experiment [14] concerns the target T7, recombinant human IL-4R protein (ECD with His Tag, Sino Biological) (human, UniProt P24394 26-232).
T7 construct: extracellular domain; bought; also called human IL-4R ECD; not shown: His Tag
Briefly: SPR, Morrison captured via anti-human IgG-Fc, IL-4R ECD-His analyte. As to the method: (§3) Binding kinetics (including affinity) of the bispecific Morrison-H (PRO2198, PRO2199) and Morrison-L (PRO2206, PRO2207) molecules to recombinant human IL-4R protein (ECD with His Tag, Sino Biological) were determined by SPR analysis on a T200 device (Biacore, Cytiva). In this SPR experiment, Morrison molecules were captured via an anti-human IgG-Fc antibody (Human Antibody Capture Kit; Biacore, Cytiva) covalently immobilized to a carboxylmethylated dextran surface (CM5 sensorchip; Biacore, Cytiva) and a titration series of human IL-4R ECD was injected as analyte. After each analyte injection cycle, the sensor chip was regenerated (MgCl₂), and new Morrison antibody was subsequently re-captured. […] The apparent dissociation (kd) and association (kₐ) rate constants and the apparent dissociation equilibrium constant (KD) were calculated with the Biacore analysis software (Biacore Evaluation software Version 3.2, Cytiva) using one-to-one Langmuir binding model and quality of the fits was monitored based on Chi2 and U-value, which are measures for the quality of the curve fitting. The binding level was calculated as the maximum stability binding achieved normalized to the theoretical Rmax. Cross-reactivity to cynomolgus monkey IL-4R was measured using the same setup as for the analysis of human IL-4R kinetics, with the difference that recombinant cynomolgus monkey IL-4R (ECD with His-tag, Acro Biosystems) protein was used as analyte instead of human IL-4R.

In experiment [15] the target is T8, recombinant cynomolgus monkey IL-4R (ECD with His-tag, Acro Biosystems) (cynomolgus monkey, UniProt A0A2K5V556 26-232).
T8 construct: bought; also called cynomolgus IL-4R
Described as above. As to the method: as §3

The target in experiment [16] is T3, recombinant human IL-31 protein …. Put plainly: cell-based or functional assay. The source holds these as a separate data set.
Experiment [17] shares this target. Put plainly: cell-based or functional assay. This is another data set of the same source.
Experiment [18] shares this target. Briefly: competitive ELISA, hIL-31/hIL-31RA. As to the method: Potency of the two humanized scFvs was further determined using a competitive ELISA. The potency of each scFv to inhibit the interaction between human IL-31 and human IL-31RA was assessed by an ELISA using the same procedure as described in EP20216938.9.
Experiment [19] deals with T9, human IL-31-His (human, UniProt Q6EBC2 24-164).
T9 construct: captured via an anti-His tag antibody; also called human IL-31 (scFv SPR); not shown: His tag
T9 sequence (looked up): T3 sequence (looked up)
Briefly: SPR, IL-31-His captured, scFv analyte (30 and 10 nM). As to the method: (§4) Affinity of the two humanized scFvs to human and cynomolgus IL-31 was determined by SPR analysis on a T200 device (Biacore, GE Healthcare). Cynomolgus IL-31 was manufactured on demand by Sino Biological since it was not available commercially. Human and cynomolgus IL-31-His was captured via an anti-His tag antibody coupled to a carboxylmethylated dextran surface and the scFvs were injected as analyte. After each analyte injection cycle the sensor chip was regenerated and new antigen was captured. The scFvs were measured using a dose response multi-cycle kinetic assay in a high-throughput mode with two concentrations (30 and 10 nM) diluted in running buffer. Obtained sensorgrams were fitted using a 1:1 binding model.
Affinity of PRO1643 and of the optimized anti-IL-31 scFvs to human IL-31 was determined by SPR analysis on a T200 device (Biacore, GE Healthcare), as described above in section 2.2.2. The scFvs were measured using a dose response multi-cycle kinetic assay in a high-throughput mode with two concentrations (30 and 10 nM) diluted in running buffer. Obtained sensorgrams were fitted using a 1:1 binding model.

In experiment [20] the target is T9, human IL-31-His. Briefly: SPR, IL-31-His captured, scFv analyte, screening mode. As to the method:
as §4

The target in experiment [21] is T9, human IL-31-His. Put plainly: SPR, IL-31-His captured, scFv analyte, full titration mode.

Read-outs that look alike come from different tables or passages of the source.

T8 sequence (A0A2K5V556 entry or part of it limits assumed): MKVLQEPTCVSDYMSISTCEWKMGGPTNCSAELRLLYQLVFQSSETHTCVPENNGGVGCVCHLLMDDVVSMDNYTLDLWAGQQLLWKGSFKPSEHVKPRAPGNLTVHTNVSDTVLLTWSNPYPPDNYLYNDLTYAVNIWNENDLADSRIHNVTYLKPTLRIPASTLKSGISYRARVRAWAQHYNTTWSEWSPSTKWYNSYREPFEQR
T6 sequence (A0A2K5V580 entry or part of it): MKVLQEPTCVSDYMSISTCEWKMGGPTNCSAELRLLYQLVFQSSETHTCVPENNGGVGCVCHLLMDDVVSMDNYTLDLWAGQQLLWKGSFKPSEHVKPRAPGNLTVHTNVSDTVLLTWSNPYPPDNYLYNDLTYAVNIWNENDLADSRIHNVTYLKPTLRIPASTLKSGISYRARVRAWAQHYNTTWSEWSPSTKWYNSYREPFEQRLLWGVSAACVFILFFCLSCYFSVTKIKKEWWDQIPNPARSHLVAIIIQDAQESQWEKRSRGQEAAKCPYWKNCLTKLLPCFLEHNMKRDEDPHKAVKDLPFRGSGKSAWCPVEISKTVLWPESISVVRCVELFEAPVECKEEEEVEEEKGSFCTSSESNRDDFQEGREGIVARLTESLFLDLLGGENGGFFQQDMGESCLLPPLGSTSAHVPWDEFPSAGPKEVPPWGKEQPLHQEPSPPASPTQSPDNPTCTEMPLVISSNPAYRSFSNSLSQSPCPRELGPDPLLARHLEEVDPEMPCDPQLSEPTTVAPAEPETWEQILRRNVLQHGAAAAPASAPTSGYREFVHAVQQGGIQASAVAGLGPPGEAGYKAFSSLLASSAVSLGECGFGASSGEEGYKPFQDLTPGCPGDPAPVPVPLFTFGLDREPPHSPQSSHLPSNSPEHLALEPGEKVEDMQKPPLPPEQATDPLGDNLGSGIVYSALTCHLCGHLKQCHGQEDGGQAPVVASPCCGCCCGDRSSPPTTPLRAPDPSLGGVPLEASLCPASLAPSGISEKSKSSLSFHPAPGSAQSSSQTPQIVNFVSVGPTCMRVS

B1: dupilumab (antibody, V domains shown)
VH: EVQLVESGGGLEQPGGSLRLSCAGSGFTFRDYAMTWVRQAPGKGLEWVSSISGSGGNTYYADSVKGRFTISRDNSKNTLYLQMNSLRAEDTAVYYCAKDRLSITIRPRYYGLDVWGQGTTVTVSS
VL: DIVMTQSPLSLPVTPGEPASISCRSSQSLLYSIGYNYLDWYLQKSGQSPQLLIYLGSNRASGVPDRFSGSGSGTDFTLKISRVEAEDVGFYYCMQALQTPYTFGQGTKLEIKR
B1: in experiment [1], the “IC50, neutralization of hIL-4 induced signaling, stat-6 reporter gene assay” value was determined as 1.15 ng/mL and the “IC50, neutralization of hIL-13 induced signaling, stat-6 reporter gene assay” value is 1 ng/mL. In experiment [2], this molecule showed an IC50 of 6.78 ng/mL. The molecule also yielded a concentration for half-maximal inhibition (IC50) in experiment [3] of 6.18 ng/mL.

B2: PRO2198 (bispecific antibody, human IgG4 S228P, kappa)
light: DIQMTQSPSSLSARVGDRVTITCQASEDIESYLAWYQQKPGKAPKLLIYRASTLAYGVPSRFSGSGSGRDFTLTISSLQPEDFATYYCLGSSYSTGSNIFGQGTKVEIKRTVAAPSVFIFPPSDEQLKSGTASVVCLLNNFYPREAKVQWKVDNALQSGNSQESVTEQDSKDSTYSLSSTLTLSKADYEKHKVYACEVTHQGLSSPVTKSFNRGEC
heavy: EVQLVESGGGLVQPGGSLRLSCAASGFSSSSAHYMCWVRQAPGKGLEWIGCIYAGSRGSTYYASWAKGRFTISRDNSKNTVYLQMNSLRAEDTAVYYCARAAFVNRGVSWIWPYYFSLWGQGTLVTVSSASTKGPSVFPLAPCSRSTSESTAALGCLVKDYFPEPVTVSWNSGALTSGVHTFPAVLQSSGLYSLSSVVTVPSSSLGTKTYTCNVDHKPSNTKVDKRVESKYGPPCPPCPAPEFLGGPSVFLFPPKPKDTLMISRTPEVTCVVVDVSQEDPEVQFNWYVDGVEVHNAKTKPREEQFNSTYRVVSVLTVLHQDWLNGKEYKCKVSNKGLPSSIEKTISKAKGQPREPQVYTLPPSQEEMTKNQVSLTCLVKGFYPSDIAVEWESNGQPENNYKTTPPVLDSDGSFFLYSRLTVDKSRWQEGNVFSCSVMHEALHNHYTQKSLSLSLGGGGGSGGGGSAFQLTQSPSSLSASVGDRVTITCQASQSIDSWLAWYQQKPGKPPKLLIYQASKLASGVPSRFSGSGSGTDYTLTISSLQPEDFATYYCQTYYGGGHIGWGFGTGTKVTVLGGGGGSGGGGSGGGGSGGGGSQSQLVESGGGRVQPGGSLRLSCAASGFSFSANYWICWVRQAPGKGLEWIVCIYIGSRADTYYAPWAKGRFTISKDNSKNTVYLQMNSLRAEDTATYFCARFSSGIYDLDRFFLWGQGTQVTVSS
notes: IgG4 (S228P) Morrison-H, anti-IL-4R Fab arms, anti-IL-31 scFv on the C-terminus of the heavy chain; tetravalent, bispecific; also called Morrison-H; MorrH
For B2, the “IC50, IL-4-induced TARC secretion in human whole blood” value in experiment [4] is below 500 pM. Besides, in [5], the “Mean IC50, human IL-4-induced signaling, stat-6 reporter gene assay” value amounted to 23.9 pM. Also, in experiment [6], the “Mean IC50, human IL-13-induced signaling, stat-6 reporter gene assay” value amounted to 22.1 pM. In addition, the “Mean IC50, human IL-31-induced signaling, IL-31RA/OSMR dimerization assay” value in experiment [7] was 198 pM. In addition, in experiment [8], the “IC50, IL-4-induced CD23 expression, memory B cells” value was determined as 4470 pM; the “IC50, IL-4-induced CD23 expression, monocytes (blood donor 1)” value was 90.4 pM; the “IC50, IL-4-induced CD23 expression, naive B cells” value came to 1370 pM. In experiment [9], the “IC50 (read off the curve), human IL-31-induced IL-31RA/OSMR dimerization, with an excess of IL-4R extracellular domain in the medium” value is around 200 pM. The “IC50, cynomolgus IL-31-induced IL-31RA/OSMR dimerization (RLU) [table under the graph]” value in experiment [10] was determined as 959 pM. In addition, in experiment [11], the concentration for a half-maximal effect (EC50) stood at 1110 pM. In experiment [12], the concentration giving a half-maximal response (EC50) came out at 970 pM. Moreover, in experiment [13], the dissociation constant Kd was found to be 10 pM. For the same molecule, in experiment [14], the Kd worked out at 291 pM, the koff was 0.000101 s⁻¹ and the kon was found to be 352000 M⁻¹ s⁻¹. In experiment [15], the equilibrium dissociation constant (Kd) stood at 144 pM, the dissociation rate constant (koff) stood at 4.9e-05 s⁻¹ and the kon was determined as 370000 M⁻¹ s⁻¹.

B3: PRO1643 (scFv, V domains shown)
VH: QSQLVESGGGLVQPGGSLRLSCAASGFSFSANYWICWVRQAPGKGLEWIVCIYIGSRADTYYAPWAKGRFTISKDNSKNTVYLQMNSLRAEDTAVYFCARFSSGIYDLDRFFLWGQGTLVTVSS
V domain: AFQLTQSPSSLSASVGDRVTITCQASQSIDSWLAWYQQKPGKPPKLLIYQASKLASGVPSRFSGSGSGTDYTLTISSLQPEDFATYYCQTYYGGGHIGWGFGTGTKVTV
notes: anti-IL-31 scFv, full graft; VL entry ends with LCDR3 (no FR4); also called 50-09-D07-sc03
With B3, the figures for the “IC50, neutralization of hIL-31-induced signaling in IL-31RA/OSMR dimerization assay” value in experiment [16] and in experiment [17] were 11.1 ng/mL and 8.08 ng/mL, respectively. The concentration for half-maximal inhibition (IC50) in experiment [18] amounted to 4.58 ng/mL. Further, the Kd in the experiment with human IL-31-His [19] is 1130 pM; with human IL-31-His [20] it was 505 pM; with human IL-31-His [21], 630 pM. Besides, the koff stood at 0.000653 s⁻¹ in the experiment with human IL-31-His [19], 0.000447 s⁻¹ with human IL-31-His [20] and 0.000516 s⁻¹ in the experiment with human IL-31-His [21]. In addition, the on-rate (kon) with human IL-31-His [19] is 579000 M⁻¹ s⁻¹; with human IL-31-His [20] it was 884000 M⁻¹ s⁻¹; in the experiment with human IL-31-His [21], 820000 M⁻¹ s⁻¹.
